Measured values published in the DeepSol protein solubility set.

Test: soluble on expression in E. coli; label from the status in PepcDB or PDB records
For “MSMATVDPWMQNLPQITNQDFFHSSGIECWNRQFPDHRVVEENGPIKTKDALMILYFITVRNIRKNRNTITRIRDALKSPVSIFRRSPKLSLQEDVLSWQKSPESLAASEYGSKLFVQFLKQQTSADDVDFWLACAKHRWTEMTRDGYEYAAYMIYNTYVFWTCERKIDLLDKFCFVDDDGGTPRDVFITAQAYVGTKFPKDSHKKFLQDPIYLNFLHSVSSAANQQKK”, the “soluble on expression in E. coli” value was “not soluble”.
In the case of “MSMKGKETMSNEKIVVGKFGATYGIRGWLKVFSYTDNAESIFDYSPWYINQKGKWVEYKVESWKRHNKGMVAKLEGMDVREDAHLMTNFEIAIDPAVLPELSEDEFYWRELFGMHVVTTKGYDLGVVTDMLETGSNDVLVVKANLKDAFGQKERLIPFLEEQVIIKVDREAQRIEVDWDPGFLEHHHHHH”, the “soluble on expression in E. coli” value is reported as “soluble”.
With “MSNDNEVPGSMVIVAQGPDDQYAYEVPPIDSAAVAGNMFGDLIQREIYLQKNIYYPVRSIFEQGTKEKKEINKKVSDQVDGLLKQITQGKREATRQERVDVMSAVLHKMESDLEGYKKTFTKGPFIDYEKQSSLSIYEAWVKIWEKNSWEERKKYPFQQLVRDELERAVAYYKQDSLSEAVKVLRQELNKQKALKEKED” the “soluble on expression in E. coli” value was “soluble”.
In the case of “MSNFEKRNRKMAEKNIRKPKQERSIEKRNKILQVAKDLFSDKTYFNVTTNEIAKKADVSVGTLYAYFASKEDILTALLKRYNDFFLTTIFADINSQDSLDRFKKNPKEWLNVLINQLLAAEDKIFHAQIEMLAYAIPQAKALLEEHNNNLKNLTYKCLLYYSDQAANPSFKTLSLVVFDFISALVDELLYHEHTQEEAHQIKKTGIDSLDLIIKSYL”, the “soluble on expression in E. coli” value is reported as “soluble”.
For “MSNGQLVSQVTVGHDKPLDREKVCPMLLRVFVANNRHNPMSEYNSRNGGSVPPSELQMHTWMDCSLRELTSLIKEVNPDARRKGTTFDFAIVQADRGSPRYILRDVGNTTNGERGIDDNKTLQQCKFEVGDFVDVAISLPSQGRRFNNREQGDRFDHRQRQRSPIR”, the “soluble on expression in E. coli” value was “not soluble”.
In the case of “MSNILFKPTHLPISKPFHALLANILSEHQAKSEVQATSKEVVMNFRDSSYSAEDGGFHPVEIALSQSSDGQWCIEYITDFAYVGNHFPELERCLDFDFQRGDFFTAYHGWNPIVGNRDARELYQLWESNFLAYVATEAFDDISLTSAP”, the “soluble on expression in E. coli” value is reported as “soluble”.
With “MSNIPKELKYTKSHEWVKIDGDEVTVGITAHAQSLLGDLVYVELPEIGKEFAAGDDSCVVESVKAASDVYAPVDGEVIEINEALVDDPSRVNHTPYKDGWLFKLKISDESQLADLLTADAYAKTLED” the “soluble on expression in E. coli” value was “not soluble”.
For “MSNLIELALRNAALDRTKLLSQVQKIEFLNGYDPRFVEGLISLEMIGDIDEYVASLMYVKMTDKYTQEEKEQLTDTILTINNDRLISCQYRFPQLYQKLMQDQFLSTFFSSSHLLPNIAPGTNNQSYETVSTNNKMKMESAKLYGHYEYYQCVVALITQIDGSRYFYHLNPNRIFGDYMGSAPLKLSGSELKDVKDITFILHPRSMVDYREFQRLQERNIVFKTVMLPVGAKSVSLSYDTDKDVLTVNNLEAGQTVTYNNLLQTPQYNRYQYTPEQYFMTQLYRGQTWAEALGEALDKYIVTRQEGATWWDLKPLFFNRKTTKNNMIAAARIKKEIEAGATSFDFTGVSRNGLLNQLLTTAVDYQLEYQRGLQNGVLSAEDLTTSAALR”, the “soluble on expression in E. coli” value was “not soluble”.
For “MSNLNNLTSKILNDAEEKKKYILADAEAQKDKIISKKTNRAEADKEEIITKANIEAEVKKARIISNAKLSVRNDMLRAKQDVISKVFNEAIEKLQNLSNGDYKYYVISTLDSLELEGTEVIIINEKDKDIFSNEFLEALNKELESKGKKGSITLNMEGKFNGGFILDRNGIQINNTFEALINSLRGELEFEVNKVLFDLEHHHHHH”, the “soluble on expression in E. coli” value was “soluble”.
In the case of “MSNNDCISTDKVDLDKKQIKKFLKQINISQLTKMIQFIDNKLLSDWDFNCLTYFDESEYPFFDINLSLICTIDHNIPINIIINFLCFVEKQYNNVPYHNTIHATMVTQKFFCLAKKLGIYDDLEYKIKLVMFISGICHDIGHPGYNNLFFVNSLHPLSIIYNDISVLENYHASITFKILQLNQCNILKNFSEKDFRMMRSYIIELILSTDMKHHFEIISKFRIRRENEDFDYIKNSDDLLILTKMIIKSADISHGSVSWSEHYCWCQRVLSEFYTQGDEELKNKMPLSPLCDRTKHNEVCKSQITFLKFVVMPLFEELSHIDNNKFIKSFCLKRLNSNCIMWDTLMKEEKTIE”, the “soluble on expression in E. coli” value is reported as “soluble”.
For “MSNPVTITEAAALHIKDMMKEHEEENAFLRVGVKGGGCSGLSYGMGFEHEKSESDSVFDQHGITVLVDKESLDIMNGTVIDYKQSMLGGGFTIDNPNAIASCGCGSSFRTATNAGKPEEC”, the “soluble on expression in E. coli” value was “soluble”.
With “MSNRNLRSSTNSDLAEGQHQTPSSDSSGHGEDQPQASPGPNKKSHTPKKNISKGAVLHEKPMTVMVLTATEPFNYKEGKENMFHATVATESQYYRVKVFNMDLKEKFTENKFITISKYFNSSGILEINETATVSEAAPNQMFEVPKNIIRSAKETLKISKIKELDSGTLIYGVFAVEKKKVNDKSITFKIKDNEDNIKVVWDKEQHNINYEKGDKLQLFSFHLRKGNGKPILHSGNHSFIKGEKLLKESFEGDGYHKGPKQVVALKATKLFTYDSIKSKKMFHATVATDTEFFRVMVFEENLEKKFIPGNTIALSDYFGMYGSLAIHEYSSVSEVKSQNKEDSSSSDERPIEHLKICDLHLQTKERLVDGEFKVYRKSSGNNCICYGIWDDTGAMKVVVSGQLTSVNCEIGNTIRLVCFELTSNADEWFLRATRYSYMEVIMPEK” the “soluble on expression in E. coli” value was “soluble”.
With “MSNSAQRDARNSRDESARASDTDRIQIAQLLAYAAEQGRLQLTDYEDRLARAYAATTYQELDRLRADLPGAAIGPRRGGECNPAPSTLLLALLGGFERRGRWNVPKKLTTFTLWGSGVLDLRYADFTSTEVDIRAYSIMGAQTILLPPEVNVEIHGHRVMGGFDRKVVGEGTRGVPTVRIRGFSLWGDVGIKRKPRKPRK” the “soluble on expression in E. coli” value was “not soluble”.
For “MSNTSSSHNTAFTPSSPAERYAQALASGQFMPDEAQAQAVQELERVWQELLSRYKASKKAFRRFRRQTSPKGVYMWGGVGRGKTWLMDQFYDSIPFRRKTRMHFHHFMQHVHRELNKLSGQRNPLDLVADQIYKDAVIICFDEFFVSNVTDAMILSDLFQKLFNRGVTLVATSNIAPDGLYKNGIHRDRFLPTIELVQKNCTILNVDAGVDYRLRVLKQAQLFKHPLTDDAKIWMSQRFSAITRSQIVSQQPITINNRVVETLGHTEDVLWCEFSELCLKPRSPADFIEIANIYNTVLVSNVPHLTDYLSEGTRRFIYLVDEFYDRGVKLLLTSQDSIIEIYEGEKLAFEIERTRSRLLEMQSDEYLHSEHRHINSENNSLEHHHHHH”, the “soluble on expression in E. coli” value was “not soluble”.
For “MSPDQKHRYKLYYVNMRGRAEPIRLVFHFLGVDFEDYRMDKGDFTGAMKDKAPMKQLPFIEIDGGKTTLCQTVSICRYLAKSIQPDRWFGGATKTDSAKVDMMADGFADLFQLAAMAKYAPDPIKDSMMGTYKESIGPKLENMQDLLKKSKGEYFVGKSIHWCDVYILGVLQALDESDDGVFDNLPELREYYLRMRNLPELKEYIDANWPETKYKE”, the “soluble on expression in E. coli” value was “not soluble”.
With “MSPEKQPLPAALVGSHVRAAAGTPADLATDRKFWTGLSRAVQERIADDWERTREAYGAARQQHYFSAEFLMGRALLNNLTNLGLVDEAAAATRELGHELTDILEIENDAALGNGGLGRLAACFLDSAVTQDYPVTGYGLLYRFGLFRQSFNEGFQVEKPDPWREEEYPFTIRRASDQLVVCFDDMKTRAIPYDMPITGYGTHNVGTLRLWKAEPWEEFDYDAFNAQRFTDAIIERERVSDICRVLYPNDTTYEGKKLRVRQQYFFTSASLQAMIQDHLAHHKDLSNFAEFHSVQLNDTHPVLAIPELMRLLMDEHDMGWEESWAIVSKTFAYTNHTVLTEALEQWDEQIFQQLFWRVWEIIAEIDRRFRLERAADGLDEETINRMAPIQHGTVHMAWIACYAAYSINGVAALHTEIIKAETLADWYALWPEKFNNKTNGVTPRRWLRMINPGLSDLLTRLSGSDDWVTDLDELKKLRSYADDKSVLEELRAIKAANKQDFAEWILERQGIEIDPESIFDVQIKRLHEYKRQLMNALYVLDLYFRIKEDGLTDIPARTVIFGAKAAPGYVRAKAIIKLINSIADLVNNDPEVSPLLKVVFVENYNVSPAEHILPASDVSEQISTAGKEASGTSNMKFMMNGALTLGTMDGANVEIVDSVGEENAYIFGARVEELPALRESYKPYELYETVPGLKRALDALDNGTLNDNNSGLFYDLKHSLIHGYGKDASDTYYVLGDFADYRETRDRMAADYASDPLGWARMAWINICESGRFSSDRTIRDYATEIWKLEPTPAVKK” the “soluble on expression in E. coli” value was “soluble”.
